Key:
Assay in all cases: EMSA
[1] = biological target: T1, Rap1 (Saccharomyces cerevisiae) (UniProt P11938); details: 10.7 mM HEPES-KOH pH 7.9, 4 mM Tris-Cl, 80.9 mM NaCl, 19.1 mM KCl, 5.4 mM MgCl2, 0.2 mM Mg acetate, 0.05% NP-40, 10% glycerol, 0.2 uM ZnCl2, 0.2 mM EDTA, 0.4 mM
T1 sequence: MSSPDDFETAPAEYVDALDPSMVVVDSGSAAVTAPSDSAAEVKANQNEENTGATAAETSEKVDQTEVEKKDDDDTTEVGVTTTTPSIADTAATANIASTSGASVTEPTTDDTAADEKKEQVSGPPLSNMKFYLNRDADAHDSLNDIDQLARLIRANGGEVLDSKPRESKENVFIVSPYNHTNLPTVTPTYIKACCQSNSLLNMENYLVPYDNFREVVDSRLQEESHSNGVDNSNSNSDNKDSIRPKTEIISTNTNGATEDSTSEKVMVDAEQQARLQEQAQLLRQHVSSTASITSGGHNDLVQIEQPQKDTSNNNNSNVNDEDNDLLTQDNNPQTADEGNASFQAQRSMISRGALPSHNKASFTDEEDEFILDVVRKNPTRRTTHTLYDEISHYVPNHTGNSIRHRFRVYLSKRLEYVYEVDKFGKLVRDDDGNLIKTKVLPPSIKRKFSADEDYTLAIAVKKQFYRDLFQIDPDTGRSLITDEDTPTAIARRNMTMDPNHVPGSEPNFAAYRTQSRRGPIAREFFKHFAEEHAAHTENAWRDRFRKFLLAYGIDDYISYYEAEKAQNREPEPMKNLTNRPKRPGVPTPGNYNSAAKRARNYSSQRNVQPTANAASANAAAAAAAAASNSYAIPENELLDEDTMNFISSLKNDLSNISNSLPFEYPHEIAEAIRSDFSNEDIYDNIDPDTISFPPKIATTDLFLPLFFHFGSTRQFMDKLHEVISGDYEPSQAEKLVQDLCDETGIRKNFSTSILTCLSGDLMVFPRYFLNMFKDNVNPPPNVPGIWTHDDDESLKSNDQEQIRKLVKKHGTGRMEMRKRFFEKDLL

[2] = biological target: T2, Reb1 (Saccharomyces cerevisiae) (UniProt P21538); details: apparent Kd on reconstituted nucleosome; 10.7 mM HEPES-KOH pH 7.9, 4 mM Tris-Cl, 80.9 mM NaCl, 19.1 mM KCl, 5.4 mM MgCl2, 0.2 mM Mg acetate, 0.05% NP-40, 10% glycerol, 0.2 uM ZnCl2, 0.2 mM EDTA, 0.4 mM
T2 sequence: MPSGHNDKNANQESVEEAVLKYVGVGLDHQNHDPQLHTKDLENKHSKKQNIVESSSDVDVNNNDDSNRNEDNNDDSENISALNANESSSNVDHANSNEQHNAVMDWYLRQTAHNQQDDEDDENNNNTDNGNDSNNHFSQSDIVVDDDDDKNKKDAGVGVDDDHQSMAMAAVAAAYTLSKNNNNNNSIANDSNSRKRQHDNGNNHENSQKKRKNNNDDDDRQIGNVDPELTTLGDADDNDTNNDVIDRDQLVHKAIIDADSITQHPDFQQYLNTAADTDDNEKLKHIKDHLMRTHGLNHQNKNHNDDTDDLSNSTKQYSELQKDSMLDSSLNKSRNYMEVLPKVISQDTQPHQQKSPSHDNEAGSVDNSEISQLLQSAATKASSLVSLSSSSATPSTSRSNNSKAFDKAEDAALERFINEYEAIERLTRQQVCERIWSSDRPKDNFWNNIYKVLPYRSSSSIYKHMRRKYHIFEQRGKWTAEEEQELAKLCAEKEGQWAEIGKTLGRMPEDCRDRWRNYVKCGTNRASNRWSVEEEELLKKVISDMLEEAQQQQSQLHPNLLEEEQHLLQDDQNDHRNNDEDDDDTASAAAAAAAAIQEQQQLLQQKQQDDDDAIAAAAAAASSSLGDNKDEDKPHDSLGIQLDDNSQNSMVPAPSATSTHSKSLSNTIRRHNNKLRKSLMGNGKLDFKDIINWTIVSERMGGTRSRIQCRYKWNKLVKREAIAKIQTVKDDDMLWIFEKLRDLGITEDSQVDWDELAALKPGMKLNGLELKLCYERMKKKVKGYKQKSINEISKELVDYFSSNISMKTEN

[3] = biological target: Cbf1 (Saccharomyces cerevisiae) (UniProt P17106); details: apparent Kd on reconstituted nucleosome; 10.7 mM HEPES-KOH pH 7.9, 4 mM Tris-Cl, 80.9 mM NaCl, 19.1 mM KCl, 5.4 mM MgCl2, 0.2 mM Mg acetate, 0.05% NP-40, 10% glycerol, 0.2 uM ZnCl2, 0.2 mM EDTA, 0.4 mM
[4] = biological target: T3, Abf1 (Saccharomyces cerevisiae) (UniProt P14164); details: apparent Kd on reconstituted nucleosome; 10.7 mM HEPES-KOH pH 7.9, 4 mM Tris-Cl, 80.9 mM NaCl, 19.1 mM KCl, 5.4 mM MgCl2, 0.2 mM Mg acetate, 0.05% NP-40, 10% glycerol, 0.2 uM ZnCl2, 0.2 mM EDTA, 0.4 mM
T3 sequence: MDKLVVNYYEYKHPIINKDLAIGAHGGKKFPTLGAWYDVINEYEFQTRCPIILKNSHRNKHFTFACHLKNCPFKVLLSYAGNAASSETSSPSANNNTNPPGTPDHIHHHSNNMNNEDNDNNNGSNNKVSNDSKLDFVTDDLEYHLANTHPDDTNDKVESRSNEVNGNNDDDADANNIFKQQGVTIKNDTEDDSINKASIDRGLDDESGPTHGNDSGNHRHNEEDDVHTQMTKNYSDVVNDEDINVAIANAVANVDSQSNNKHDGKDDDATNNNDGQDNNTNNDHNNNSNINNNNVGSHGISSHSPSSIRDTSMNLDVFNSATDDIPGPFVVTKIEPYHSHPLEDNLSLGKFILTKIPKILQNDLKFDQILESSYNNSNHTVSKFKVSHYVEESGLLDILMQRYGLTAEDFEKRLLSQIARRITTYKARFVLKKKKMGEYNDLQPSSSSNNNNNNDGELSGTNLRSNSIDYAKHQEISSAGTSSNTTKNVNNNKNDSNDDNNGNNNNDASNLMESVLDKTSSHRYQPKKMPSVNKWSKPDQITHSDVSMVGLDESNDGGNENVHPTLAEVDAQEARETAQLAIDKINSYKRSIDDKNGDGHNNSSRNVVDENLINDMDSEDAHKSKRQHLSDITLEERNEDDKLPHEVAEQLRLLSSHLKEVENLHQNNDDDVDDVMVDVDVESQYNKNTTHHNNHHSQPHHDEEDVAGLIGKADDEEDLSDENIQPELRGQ

Chain of UniProt P17106 (P17106 whole entry): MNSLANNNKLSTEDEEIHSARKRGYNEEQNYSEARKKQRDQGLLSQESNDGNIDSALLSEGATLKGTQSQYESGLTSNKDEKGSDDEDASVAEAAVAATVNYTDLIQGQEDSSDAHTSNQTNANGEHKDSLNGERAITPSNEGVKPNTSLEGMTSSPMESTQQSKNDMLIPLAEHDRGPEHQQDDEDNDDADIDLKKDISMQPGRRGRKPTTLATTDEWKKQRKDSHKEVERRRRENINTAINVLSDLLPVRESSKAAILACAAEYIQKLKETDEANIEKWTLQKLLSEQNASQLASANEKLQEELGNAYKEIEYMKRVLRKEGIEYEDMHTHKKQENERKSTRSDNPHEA

GGTCGCTGTTCAATACATGCACAGGATGTATATATCTGACACGTGCCTGGAGACTAGGGAGTAATCCCCTTGGCGGTTAAAACGCGGGGGACAGCGCGTACGTGCGTTTAAGCGGTGCTAGAGCTGTCTACGACCAATTGAGCGGCCTCGGCACCGGGATTCTCCAGGGCGGCCGCTACACCCATACATTTCCATGGTGATGACCGCGGACCTGCAGGCATGCAAGC (double strand) [20-NC-60Rap1bs nucleosome]
Kd [1]: 0.8 nM

GGTCGCTGTTCAATACATGCACAGGATGTATATATCTGACACGTGCCTGGAGACTAGGGAGTAATCCCCTTGGCGGTTAAAACGCGGGGGACAGCGCGTACGTGCGTTTAAGCGGTGCTAGAGCTGTCTACGACCAATTGAGCGGCCTCGGCACCGGGATTCTCCAGGGCGGCCGCTCGGGTAAAGCATCACCATGGTGATGACCGCGGACCTGCAGGCATGCAAGC (double strand) [20-NC-60Reb1bs nucleosome]
Kd [2]: 4.9 nM

GGTCGCTGTTCAATACATGCACAGGATGTATATATCTGACACGTGCCTGGAGACTAGGGAGTAATCCCCTTGGCGGTTAAAACGCGGGGGACAGCGCGTACGTGCGTTTAAGCGGTGCTAGAGCTGTCTACGACCAATTGAGCGGCCTCGGCACCGGGATTCTCCAGGGCGGCCGCTGTCACGTGGGCTAGTAATGGTGATGACCGCGGACCTGCAGGCATGCAAGC (double strand) [20-NC-60Cbf1bs nucleosome]
Kd [3]: 7.8 nM

GGTCGCTGTTCAATACATGCACAGGATGTATATATCTGACACGTGCCTGGAGACTAGGGAGTAATCCCCTTGGCGGTTAAAACGCGGGGGACAGCGCGTACGTGCGTTTAAGCGGTGCTAGAGCTGTCTACGACCAATTGAGCGGCCTCGGCACCGGGATTCTCCAGGGCGGCCGCTTATCGTATTGCATGATATGGTGATGACCGCGGACCTGCAGGCATGCAAGC (double strand) [20-NC-60Abf1bs nucleosome]
Kd [4]: 1 nM

— article PMC11069190
